In US11760780B2, “Targeting dimerization of BAX to modulate BAX activity” (ALBERT EINSTEIN COLLEGE OF MEDICINE, priority 2014, dated 2023):
Positions of bridges follow the written chain, without caps; N, C: chain ends. Non-standard residues stand in square brackets, D forms with d. S5 = C=CCCC[C@](C)(N)C(=O)O

Columns and labels:
Format in all cases: biochemical
[1] = target: T1, BAX 4MA dimer (Homo sapiens, UniProt Q07812, C126S/C62S/I136C/V121C); experiment: BAX dimer dissociation / oligomerization by size exclusion chromatography; conditions: FIG. 14A
T1 construct: made in house; host or cells: E. coli BL21 (DE3) codon+
T1 sequence (Q07812 whole entry C62S/V121C/C126S/I136C): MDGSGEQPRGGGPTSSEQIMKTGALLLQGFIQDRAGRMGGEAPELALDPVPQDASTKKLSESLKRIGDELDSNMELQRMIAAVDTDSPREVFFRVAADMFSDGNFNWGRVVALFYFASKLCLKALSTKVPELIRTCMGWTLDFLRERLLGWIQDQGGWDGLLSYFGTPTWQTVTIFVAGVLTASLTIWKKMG
Procedure: Superdex 75 10/300 GL and 200 10/300 GL (GE Healthcare) columns were used for size exclusion chromatography of recombinant proteins and cell extracts. Recombinant protein was injected in columns equilibrated with a buffer containing 20 mM HEPES pH 7.2, 150 mM KCl, 1 mM DTT. 1 mg of cytosolic or membrane extracts was applied to a Superdex 200 10/300 GL equilibrated in buffer containing 10 mM Tris, pH 7.5, 1 mM EGTA, 200 mM Sucrose and Complete Protease Inhibitors. Fractions of 500 μl were collected, and 30 μl of each fraction was analyzed by SDS-PAGE and immunoblotting. All operations were run at 4° C. Gel filtration molecular weight markers (GE Healthcare) were also subjected to the columns to obtain a standard curve for the estimation of the molecular weight of the proteins.
BAX wild type and mutants were concentrated to ˜0.5 mM in BAX buffer (10 mM HEPES pH 7, 150 mM KCl, 1 mM DTT) and incubated at 20° C. for 1-3 days before diluting to a total volume of 250 μl and loaded onto a Superdex 75 HR 10/30 size exclusion column (GE Healthcare). These conditions allow a controlled dimerization process than aggregation due to BAX activation. Separation of monomeric and dimeric BAX was achieved using a flow rate of 0.5 ml/min at 4° C. The chromatogram traces show the monomeric and dimeric peaks at ˜11.8 and ˜10.4 ml, respectively. […]

[2] = target: T2, BAX (Homo sapiens, UniProt Q07812, P168G); experiment: Liposomal permeabilization assay (ANTS/DPX release); conditions: purified BAX P168G dimer, increasing doses, maximum release at 90 min, FIG. 14B
T2 construct: made in house; host or cells: E. coli BL21 (DE3) codon+
T2 sequence (Q07812 whole entry P168G): as the sequence (Q07812 whole entry C62S/V121C/C126S/I136C) above, with S62C, C121V, S126C, C136I, P168G counted along it
Procedure: (§1) Liposomes were composed of the following molar percentages of lipids (Avanti Polar Lipids): phosphatidylcholine, 48%; phosphatidylethanolamine, 28%; phosphatidylinositol, 10%; dioleoyl phosphatidylserine, 10%; and tetraoleoyl cardiolipin, 4% and were loaded with ANTS/DPX (Molecular Probe) upon extrusion. BAX (400 nM) was combined with BIM SAHBA2 at the indicated concentrations in 96-well format (Corning) and then liposomes were added (10 μl from 50 mM total lipid stock) in assay buffer (10 mM HEPES, pH 7, 200 mM KCl, 5 mM MgCl2, and 0.2 mM EDTA) to a final volume of 100 μl. ANTS/DPX release was quantified based on the increase in fluorescence intensity that occurs when the ANTS fluorophore is separated from the DPX quencher upon release from the liposomes into the supernatant. Fluorescence (λex=355 nm and λem=520 nm) was measured over time at 30° C. using a Tecan Infinite M1000 plate reader. The percentage release of ANTS/DPX at 90 min was calculated as percentage release=((F−F0)/(F100−F0))×100, where F0 and F100 are baseline and maximal fluorescence, respectively. 1% Triton treatment is used to determine the maximum amount of liposomal release per assay, and this value sets the 100% value.

[3] = target: T3, BAX (Homo sapiens, UniProt Q07812); experiment: as above
T3 construct: made in house; host or cells: E. coli BL21 (DE3) codon+
T3 sequence (Q07812 whole entry): as the sequence (Q07812 whole entry C62S/V121C/C126S/I136C) above, with S62C, C121V, S126C, C136I counted along it
Procedure: as §1

Substance: N-acetylated^145EIWIAQELRS5IGDS5FNAYYA^164-CONH2 (Ac-EIWIAQELR[S5]IGD[S5]FNAYYA-NH2; staple 10-14; SMILES CC[C@H](C)[C@H](NC(=O)[C@H](Cc1c[nH]c2ccccc12)NC(=O)[C@@H](NC(=O)[C@H](CCC(=O)O)NC(C)=O)[C@@H](C)CC)C(=O)N[C@@H](C)C(=O)N[C@@H](CCC(N)=O)C(=O)N[C@@H](CCC(=O)O)C(=O)N[C@@H](CC(C)C)C(=O)N[C@@H](CCCNC(=N)N)C(=O)N[C@@]1(C)CCCC=CCCC[C@@](C)(C(=O)N[C@@H](Cc2ccccc2)C(=O)N[C@@H](CC(N)=O)C(=O)N[C@@H](C)C(=O)N[C@@H](Cc2ccc(O)cc2)C(=O)N[C@@H](Cc2ccc(O)cc2)C(=O)N[C@@H](C)C(N)=O)NC(=O)[C@H](CC(=O)O)NC(=O)CNC(=O)[C@H]([C@@H](C)CC)NC1=O) [BIM SAHBA2, Hydrocarbon-stapled peptide corresponding to the BH3 domain of BIM]
- activation of BAX 4MA monomer to induce BAX oligomerization ([1]; in the presence of reducing agent (DTT)): can also activate BAX 4MA monomer to induce BAX oligomerization
- competition and dissociation of BAX 4MA dimer to monomer ([1]; isolated BAX 4MA dimer, high doses, Superdex 75 SEC): can compete and dissociate the dimer into monomers
- activation of BAX P168G dimer compared to BAX WT dimer [2]: more resistant to activation
- membrane permeabilization by BAX dimer upon addition of activator ([3]; SEC-isolated BAX dimer, liposomes, FIG. 1D): nearly inactive
- membrane permeabilization by BAX monomer upon addition of activator ([3]; SEC-isolated BAX monomer, liposomes, FIG. 1D): activated and induced membrane permeabilization
- doses required to activate BAX WT dimer versus dose that fully activates BAX WT monomer ([3]; purified BAX WT dimer, maximum release at 90 min, FIG. 14B): significantly higher
